Test [1] addresses T1, human CD70 on CD70 positive cell lines (human, UniProt P32970 1-193).
T1 construct: whole, on cells
T1 sequence (looked up): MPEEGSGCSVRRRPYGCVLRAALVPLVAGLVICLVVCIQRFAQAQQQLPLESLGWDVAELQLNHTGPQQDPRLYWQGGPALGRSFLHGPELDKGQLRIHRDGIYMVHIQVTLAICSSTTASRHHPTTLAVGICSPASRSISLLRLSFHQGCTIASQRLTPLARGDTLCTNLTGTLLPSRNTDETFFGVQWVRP
The test can be described thus: 786-O cell binding; IC50 of the vcF2 conjugate over IC50 of the unconjugated IgG.

The target of test [2] is T1, human CD70 on CD70 positive cell lines. The test can be described thus: 786-O cell binding, apparent KD of the IgG.
Test [3] has the same target. The experiment in a line: saturation binding of europium-labelled antibody to CD70+ Caki-1 cells (apparent KD). From the text: (§1) Humanized 1F6 antibody derivatives HDLA (hVHD and hVLA), HHLA (hVHH and hVLA), and HJLA (hVHJ and hVLA), and c1F6 were transiently expressed in 293 cells, labeled with europium using the Eu-N1 iodoacetamido chelate (Perkin Elmer), and analyzed for saturation binding to a panel of CD70 positive cell lines as described in detail in U.S. Patent Application No. 60/673,070, filed Apr. 19, 2005; and PCT International Publication No. WO 2006/113909.

For test [4] the target is unchanged. The experiment in a line: saturation binding of europium-labelled antibody to CD70+ ACHN cells (apparent KD).
Excerpt: as §1

Test [5] has the same target. The experiment in a line: saturation binding of europium-labelled antibody to CD70+ Caki-2 cells (apparent KD).
Excerpt: as §1

For test [6] the target is unchanged. The experiment in a line: saturation binding of europium-labelled antibody to CD70+ 786-O cells (apparent KD).
Excerpt: as §1

B1: h1F6 IgG1 A327C-vcF2 (conjugate in Table 8) (antibody)
heavy: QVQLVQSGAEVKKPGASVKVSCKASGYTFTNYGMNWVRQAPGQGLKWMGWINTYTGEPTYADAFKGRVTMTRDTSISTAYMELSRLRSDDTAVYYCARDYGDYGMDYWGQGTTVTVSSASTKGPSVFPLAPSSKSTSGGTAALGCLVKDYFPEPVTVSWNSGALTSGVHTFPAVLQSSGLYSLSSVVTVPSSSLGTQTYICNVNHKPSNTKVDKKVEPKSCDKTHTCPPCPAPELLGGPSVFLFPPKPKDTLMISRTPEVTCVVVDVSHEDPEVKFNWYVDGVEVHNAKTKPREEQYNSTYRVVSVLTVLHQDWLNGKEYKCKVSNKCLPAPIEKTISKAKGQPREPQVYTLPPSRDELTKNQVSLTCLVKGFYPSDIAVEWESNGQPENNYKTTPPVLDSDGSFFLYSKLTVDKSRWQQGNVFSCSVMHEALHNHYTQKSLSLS
light: DIVMTQSPDSLAVSLGERATINCRASKSVSTSGYSFMHWYQQKPGQPPKLLIYLASNLESGVPDRFSGSGSGTDFTLTISSLQAEDVAVYYCQHSREVPWTFGQGTKVEIKRTVAAPSVFIFPPSDEQLKSGTASVVCLLNNFYPREAKVQWKVDNALQSGNSQESVTEQDSKDSTYSLSSTLTLSKADYEKHKVYACEVTHQGLSSPVTKSFNRGEC
modifications: vcF2 as printed (taken as vcMMAF, 2 drugs/antibody); attachment residues not stated
notes: Position 327 is Fc (EU) numbering; also called IgG1 A327C IgG-vcF2
As to B1, the “IC50 IgG-vcF2 / IC50 IgG” value in test [1] was 1.1 ratio.

B2: h1F6 IgG1-vcF2 (conjugate of h1F6 IgG1 in Table 8) (antibody)
heavy: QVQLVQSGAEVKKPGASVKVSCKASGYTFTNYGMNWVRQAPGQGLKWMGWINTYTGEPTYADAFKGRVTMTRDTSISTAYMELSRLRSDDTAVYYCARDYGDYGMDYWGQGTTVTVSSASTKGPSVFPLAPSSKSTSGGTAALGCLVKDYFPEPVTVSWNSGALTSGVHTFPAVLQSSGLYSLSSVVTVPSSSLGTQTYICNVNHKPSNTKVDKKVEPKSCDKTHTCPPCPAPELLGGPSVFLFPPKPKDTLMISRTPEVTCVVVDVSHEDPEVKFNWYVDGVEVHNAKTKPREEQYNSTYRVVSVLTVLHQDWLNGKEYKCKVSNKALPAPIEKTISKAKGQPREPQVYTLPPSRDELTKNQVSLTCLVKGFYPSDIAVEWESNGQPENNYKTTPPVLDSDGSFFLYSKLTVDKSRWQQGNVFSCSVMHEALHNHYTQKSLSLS
light: DIVMTQSPDSLAVSLGERATINCRASKSVSTSGYSFMHWYQQKPGQPPKLLIYLASNLESGVPDRFSGSGSGTDFTLTISSLQAEDVAVYYCQHSREVPWTFGQGTKVEIKRTVAAPSVFIFPPSDEQLKSGTASVVCLLNNFYPREAKVQWKVDNALQSGNSQESVTEQDSKDSTYSLSSTLTLSKADYEKHKVYACEVTHQGLSSPVTKSFNRGEC
modifications: vcF2 as printed (taken as vcMMAF, 2 drugs/antibody); attachment residues not stated
notes: Its preparation is not described; also called IgG1 IgG-vcF2
For B2, the “IC50 IgG-vcF2 / IC50 IgG” value in test [1] is 1.3 ratio.

B3: h1F6 IgG1 E269C-vcF2 (conjugate in Table 8) (antibody)
heavy: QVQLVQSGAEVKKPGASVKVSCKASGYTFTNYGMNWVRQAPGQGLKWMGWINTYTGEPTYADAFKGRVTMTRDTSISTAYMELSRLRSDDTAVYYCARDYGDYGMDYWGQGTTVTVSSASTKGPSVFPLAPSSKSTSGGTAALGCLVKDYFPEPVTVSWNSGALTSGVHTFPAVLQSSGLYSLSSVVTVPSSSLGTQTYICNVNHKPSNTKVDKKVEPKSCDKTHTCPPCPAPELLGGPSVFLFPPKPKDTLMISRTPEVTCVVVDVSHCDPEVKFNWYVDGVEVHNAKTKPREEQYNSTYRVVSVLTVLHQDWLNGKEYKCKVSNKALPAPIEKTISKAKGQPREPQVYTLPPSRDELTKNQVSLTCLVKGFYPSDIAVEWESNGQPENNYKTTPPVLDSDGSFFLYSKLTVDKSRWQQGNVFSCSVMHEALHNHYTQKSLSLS
light: DIVMTQSPDSLAVSLGERATINCRASKSVSTSGYSFMHWYQQKPGQPPKLLIYLASNLESGVPDRFSGSGSGTDFTLTISSLQAEDVAVYYCQHSREVPWTFGQGTKVEIKRTVAAPSVFIFPPSDEQLKSGTASVVCLLNNFYPREAKVQWKVDNALQSGNSQESVTEQDSKDSTYSLSSTLTLSKADYEKHKVYACEVTHQGLSSPVTKSFNRGEC
modifications: vcF2 as printed (taken as vcMMAF, 2 drugs/antibody); attachment residues not stated
notes: Position 269 is Fc (EU) numbering; also called IgG1 E269C IgG-vcF2
As for B3, the “IC50 IgG-vcF2 / IC50 IgG” value in test [1] is 0.9 ratio.

B4: h1F6 IgG1 E269C (antibody)
heavy: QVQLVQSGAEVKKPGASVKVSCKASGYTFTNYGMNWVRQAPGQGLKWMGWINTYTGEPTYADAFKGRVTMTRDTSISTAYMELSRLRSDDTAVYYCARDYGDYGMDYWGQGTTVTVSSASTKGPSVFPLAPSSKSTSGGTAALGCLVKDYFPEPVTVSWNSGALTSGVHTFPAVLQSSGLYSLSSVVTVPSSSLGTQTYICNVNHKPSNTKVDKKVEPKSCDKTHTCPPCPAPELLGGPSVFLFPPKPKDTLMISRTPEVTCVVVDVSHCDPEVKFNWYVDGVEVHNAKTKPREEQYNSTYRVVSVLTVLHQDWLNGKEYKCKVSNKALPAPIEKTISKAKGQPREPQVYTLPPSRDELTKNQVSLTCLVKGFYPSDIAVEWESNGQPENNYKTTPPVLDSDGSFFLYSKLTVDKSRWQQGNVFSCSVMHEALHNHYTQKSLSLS
light: DIVMTQSPDSLAVSLGERATINCRASKSVSTSGYSFMHWYQQKPGQPPKLLIYLASNLESGVPDRFSGSGSGTDFTLTISSLQAEDVAVYYCQHSREVPWTFGQGTKVEIKRTVAAPSVFIFPPSDEQLKSGTASVVCLLNNFYPREAKVQWKVDNALQSGNSQESVTEQDSKDSTYSLSSTLTLSKADYEKHKVYACEVTHQGLSSPVTKSFNRGEC
As to B4, the Kd in test [2] came out at 0.8 nM.

B5: h1F6 IgG1 D265C-vcF2 (conjugate in Table 8) (antibody)
heavy: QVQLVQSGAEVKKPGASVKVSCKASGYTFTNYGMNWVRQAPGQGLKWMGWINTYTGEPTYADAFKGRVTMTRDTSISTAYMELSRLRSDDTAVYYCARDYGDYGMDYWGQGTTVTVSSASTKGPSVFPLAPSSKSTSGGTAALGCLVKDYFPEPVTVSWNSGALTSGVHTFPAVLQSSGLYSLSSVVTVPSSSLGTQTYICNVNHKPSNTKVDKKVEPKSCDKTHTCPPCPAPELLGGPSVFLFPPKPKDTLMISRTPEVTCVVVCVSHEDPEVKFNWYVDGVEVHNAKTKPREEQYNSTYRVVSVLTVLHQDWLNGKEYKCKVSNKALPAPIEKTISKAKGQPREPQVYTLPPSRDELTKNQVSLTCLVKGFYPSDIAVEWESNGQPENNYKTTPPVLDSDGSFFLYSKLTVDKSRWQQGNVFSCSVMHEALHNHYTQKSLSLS
light: DIVMTQSPDSLAVSLGERATINCRASKSVSTSGYSFMHWYQQKPGQPPKLLIYLASNLESGVPDRFSGSGSGTDFTLTISSLQAEDVAVYYCQHSREVPWTFGQGTKVEIKRTVAAPSVFIFPPSDEQLKSGTASVVCLLNNFYPREAKVQWKVDNALQSGNSQESVTEQDSKDSTYSLSSTLTLSKADYEKHKVYACEVTHQGLSSPVTKSFNRGEC
modifications: vcF2 as printed (taken as vcMMAF, 2 drugs/antibody); attachment residues not stated
notes: Position 265 is Fc (EU) numbering; also called IgG1 D265C IgG-vcF2
For the molecule B5, the “IC50 IgG-vcF2 / IC50 IgG” value in test [1] is 0.9 ratio.

B6: humanized 1F6 antibody derivative HDLA (hVHD and hVLA) (antibody, human IgG1, kappa, V domains shown)
VH: QVQLVQSGAEVKKPGASVKVSCKASGYTFTNYGMNWVRQAPGQGLEWMGWINTYTGEPTYADAFKGRVTMTTDTSTSTAYMELRSLRSDDTAVYYCARDYGDYGMDYWGQGTTVTVSS
VL: DIVMTQSPDSLAVSLGERATINCRASKSVSTSGYSFMHWYQQKPGQPPKLLIYLASNLESGVPDRFSGSGSGTDFTLTISSLQAEDVAVYYCQHSREVPWTFGQGTKVEIKR
notes: Heavy chain is hVH-D + hIgG1 constant domain; also called h1F6 HDLA
B6: the Kd in test [3] is 1.29 nM; in test [4], 1.44 nM; in test [5], 0.86 nM; in test [6], 0.55 nM.

B7: humanized 1F6 antibody derivative HHLA (hVHH and hVLA) (antibody, V domains shown)
VH: QVQLVQSGAEVKKPGASVKVSCKASGYTFTNYGMNWVRQAPGQGLEWMGWINTYTGEPTYADAFKGRFAFSLDTSTSTAYLQINSLRSDDTAVYYCARDYGDYGMDYWGQGTTVTVSS
VL: DIVMTQSPDSLAVSLGERATINCRASKSVSTSGYSFMHWYQQKPGQPPKLLIYLASNLESGVPDRFSGSGSGTDFTLTISSLQAEDVAVYYCQHSREVPWTFGQGTKVEIKR
notes: Heavy chain is hVH-H + hIgG1 constant domain; also called h1F6 HHLA
For B7, the Kd in test [3] is 1.22 nM; in test [4], 0.29 nM; in test [5], 0.15 nM; in test [6], 0.28 nM.

B8: c1F6 (chimeric derivative of the anti-CD70 murine monoclonal antibody 1F6) (antibody, V domains shown)
VH: QIQLVQSGPEVKKPGETVKISCKASGYTFTNYGMNWVKQAPGKGLKWMGWINTYTGEPTYADAFKGRFAFSLETSASTAYLQINNLKNEDTATYFCARDYGDYGMDYWGQGTSVTVSS
VL: DIVLTQSPASLAVSLGQRATISCRASKSVSTSGYSFMHWYQQKPGQPPKLLIYLASNLESGVPARFSGSGSGTDFTLNIHPVEEEDAATYYCQHSREVPWTFGGGTKLEIKR
notes: also called chimeric 1F6
For B8, the Kd came to 1.28 nM in test [3], 0.3 nM in test [4], 0.26 nM in test [5] and 0.56 nM in test [6].

The values above are taken from patent publication US20240084031A1 (Seagen, published 2024).
